This data set concerns the target T1, GST-PIF4 (Arabidopsis thaliana, UniProt Q8W2F3 1-430).
T1 sequence: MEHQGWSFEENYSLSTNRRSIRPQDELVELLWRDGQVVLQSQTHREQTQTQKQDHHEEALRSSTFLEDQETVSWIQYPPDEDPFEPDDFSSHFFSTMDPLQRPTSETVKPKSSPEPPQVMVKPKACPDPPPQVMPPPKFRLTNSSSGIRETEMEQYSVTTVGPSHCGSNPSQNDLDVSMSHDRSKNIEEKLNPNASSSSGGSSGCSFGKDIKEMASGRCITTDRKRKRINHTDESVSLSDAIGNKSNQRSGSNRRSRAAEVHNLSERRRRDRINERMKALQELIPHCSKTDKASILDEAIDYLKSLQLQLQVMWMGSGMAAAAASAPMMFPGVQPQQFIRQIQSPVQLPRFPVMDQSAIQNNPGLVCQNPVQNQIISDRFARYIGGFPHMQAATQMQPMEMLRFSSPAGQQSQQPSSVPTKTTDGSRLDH
Nature of the data set: EMSA.

B1: IAA29pro-G (dsDNA)
DNA 1: GAGTAGTCACGCACGCACGACTCCGTTCACGTGACATTCACGTTGATATTTCCCCCTCTA
DNA 2: TAGAGGGGGAAATATCAACGTGAATGTCACGTGAACGGAGTCGTGCGTGCGTGACTACTC
B1: the binding result is on record as “binds”.

B2: NAC019pro-G1 (dsDNA)
DNA 1: ATCACGACGATCTAACTGACACACGTGTCAGAATTCAAAAGTGTTTATAGATAAACACAA
DNA 2: TTGTGTTTATCTATAAACACTTTTGAATTCTGACACGTGTGTCAGTTAGATCGTCGTGAT
On to B2, for which the binding result is “binds”.

B3: NAC019pro-G2 (dsDNA)
DNA 1: CATTTCAGAAAACCCGTCAACAAAAAACACGTGAAATAAAATATCTCTTCCTTTACCAGT
DNA 2: ACTGGTAAAGGAAGAGATATTTTATTTCACGTGTTTTTTGTTGACGGGTTTTCTGAAATG
Regarding B3, the binding result is “no binding”.

B4: NAC019pro-G34 (dsDNA)
DNA 1: TTGCGCCTAACTTCTACGATAGACACGTGGACACGTGTCGTCATGATGTAGTTTTGTCCG
DNA 2: CGGACAAAACTACATCATGACGACACGTGTCCACGTGTCTATCGTAGAAGTTAGGCGCAA
Regarding B4, the binding result is on record as “binds”.

B5: IAA29pro-p (dsDNA)
DNA 1: GATGTTGGATGTCTAAATTCGTTGAATCATGTGTCTCTTGACGAAATATGCATCTTCTTA
DNA 2: TAAGAAGATGCATATTTCGTCAAGAGACACATGATTCAACGAATTTAGACATCCAACATC
In the case of B5, the binding result is on record as “no binding”.

The values are drawn from article PMC8446286.
